Reference: patent US20240352102A1 (UNITED STATES GOVERNMENT AS REPRESENTED BY THE DEPARTMENT …, published 2024)

Columns and labels:
Experiment in all cases: peptide microarray
Peptide_028 = molecular target: T1, Peptide_028
T1 peptide: DDKKAKGADGKTKIA

Peptide_013 = molecular target: T2, Peptide_013
T2 peptide: QTPTEDGSEEPGSET

Peptide_014 = molecular target: T3, Peptide_014
T3 peptide: EDGSEEPGSETSDAK

Peptide_020 = molecular target: T4, Peptide_020
T4 peptide: AGIGDTPSLEDEAAG

Peptide_026 = molecular target: T5, Peptide_026
T5 peptide: KSKDGTGSDDKKAKG

Peptide_004 = molecular target: T6, Peptide_004
T6 peptide: DHAGTYGLGDRKDQG

Peptide_003 = molecular target: T7, Peptide_003
T7 peptide: EVMEDHAGTYGLGDR

Peptide_010 = molecular target: T8, Peptide_010
T8 peptide: GDTDAGLKESPLQTP

Peptide_032 = molecular target: T9, Peptide_032
T9 peptide: PRGAAPPGQKGQANA

Peptide_001 = molecular target: T10, Peptide_001
T10 peptide: MAEPRQEFEVMEDHA

Peptide_019 = molecular target: T11, Peptide_019
T11 peptide: EAEEAGIGDTPSLED

Peptide_033 = molecular target: T12, Peptide_033
T12 peptide: APPGQKGQANATRIP

Peptide_009 = molecular target: T13, Peptide_009
T13 peptide: QDQEGDTDAGLKESP

Peptide_021 = molecular target: T14, Peptide_021
T14 peptide: DTPSLEDEAAGHVTQ

Peptide_029 = molecular target: T15, Peptide_029
T15 peptide: AKGADGKTKIATPRG

Peptide_002 = molecular target: T16, Peptide_002
T16 peptide: RQEFEVMEDHAGTYG

Peptide_006 = molecular target: T17, Peptide_006
T17 peptide: GDRKDQGGYTMHQDQ

Peptide_031 = molecular target: T18, Peptide_031
T18 peptide: KIATPRGAAPPGQKG

Peptide_036 = molecular target: T19, Peptide_036
T19 peptide: RIPAKTPPAPKTPPS

Peptide_027 = molecular target: T20, Peptide_027
T20 peptide: GTGSDDKKAKGADGK

Peptide_030 = molecular target: T21, Peptide_030
T21 peptide: DGKTKIATPRGAAPP

Peptide_024 = molecular target: T22, Peptide_024
T22 peptide: VTQARMVSKSKDGTG

Peptide_025 = molecular target: T23, Peptide_025
T23 peptide: RMVSKSKDGTGSDDK

Peptide_084 = molecular target: T24, Peptide_084
T24 peptide: HVPGGGNKKIETHKL

Peptide_082 = molecular target: T25, Peptide_082
T25 peptide: IGSLDNITHVPGGGN

Peptide_080 = molecular target: T26, Peptide_080
T26 peptide: FKDRVQSKIGSLDNI

Peptide_076 = molecular target: T27, Peptide_076
T27 peptide: HKPGGGQVEVKSEKL

Peptide_101 = molecular target: T28, Peptide_101
T28 peptide: TLADEVSASLAKQGL

Peptide_100 = molecular target: T29, Peptide_100
T29 peptide: ATLADEVSASLAKQG

Peptide_075 = molecular target: T30, Peptide_075
T30 peptide: GNIHHKPGGGQVEVK

Peptide_096 = molecular target: T31, Peptide_096
T31 peptide: NVSSTGSIDMVDSPQ

Peptide_093 = molecular target: T32, Peptide_093
T32 peptide: VVSGDTSPRHLSNVS

Peptide_088 = molecular target: T33, Peptide_088
T33 peptide: FRENAKAKTDHGAEI

Peptide_091 = molecular target: T34, Peptide_091
T34 peptide: AEIVYKSPVVSGDTS

Peptide_086 = molecular target: T35, Peptide_086
T35 peptide: KIETHKLTFRENAKA

Peptide_095 = molecular target: T36, Peptide_095
T36 peptide: RHLSNVSSTGSIDMV

Peptide_092 = molecular target: T37, Peptide_092
T37 peptide: YKSPVVSGDTSPRHL

Peptide_090 = molecular target: T38, Peptide_090
T38 peptide: TDHGAEIVYKSPVVS

Peptide_078 = molecular target: T39, Peptide_078
T39 peptide: EVKSEKLDFKDRVQS

Peptide_094 = molecular target: T40, Peptide_094
T40 peptide: DTSPRHLSNVSSTGS

Peptide_083 = molecular target: T41, Peptide_083
T41 peptide: DNITHVPGGGNKKIE

Peptide_087 = molecular target: T42, Peptide_087
T42 peptide: HKLTFRENAKAKTDH

Peptide_079 = molecular target: T43, Peptide_079
T43 peptide: EKLDFKDRVQSKIGS

Peptide_089 = molecular target: T44, Peptide_089
T44 peptide: AKAKTDHGAEIVYKS

Peptide_097 = molecular target: T45, Peptide_097
T45 peptide: TGSIDMVDSPQLATL

Peptide_081 = molecular target: T46, Peptide_081
T46 peptide: VQSKIGSLDNITHVP

Peptide_077 = molecular target: T47, Peptide_077
T47 peptide: GGQVEVKSEKLDFKD

binding result (Peptide_028): no binding (tested: 1 ug/ml) | binding result (Peptide_013): no binding (tested: 1 ug/ml) | binding result (Peptide_014): no binding (tested: 1 ug/ml) | binding result (Peptide_020): no binding (tested: 1 ug/ml) | binding result (Peptide_026): no binding (tested: 1 ug/ml) | binding result (Peptide_004): no binding (tested: 1 ug/ml) | binding result (Peptide_003): no binding (tested: 1 ug/ml) | binding result (Peptide_010): no binding (tested: 1 ug/ml) | binding result (Peptide_032): no binding (tested: 1 ug/ml) | binding result (Peptide_001): no binding (tested: 1 ug/ml) | binding result (Peptide_019): no binding (tested: 1 ug/ml) | binding result (Peptide_033): no binding (tested: 1 ug/ml) | binding result (Peptide_009): no binding (tested: 1 ug/ml) | binding result (Peptide_021): no binding (tested: 1 ug/ml) | binding result (Peptide_029): no binding (tested: 1 ug/ml) | binding result (Peptide_002): no binding (tested: 1 ug/ml) | binding result (Peptide_006): no binding (tested: 1 ug/ml) | binding result (Peptide_031): no binding (tested: 1 ug/ml) | binding result (Peptide_036): no binding (tested: 1 ug/ml) | binding result (Peptide_027): no binding (tested: 1 ug/ml) | binding result (Peptide_030): no binding (tested: 1 ug/ml) | binding result (Peptide_024): no binding (tested: 1 ug/ml) | binding result (Peptide_025): no binding (tested: 1 ug/ml) | binding result (Peptide_084): no binding (tested: 1 ug/ml) | binding result (Peptide_082): no binding (tested: 1 ug/ml) | binding result (Peptide_080): no binding (tested: 1 ug/ml) | binding result (Peptide_076): no binding (tested: 1 ug/ml) | binding result (Peptide_101): no binding (tested: 1 ug/ml) | binding result (Peptide_100): no binding (tested: 1 ug/ml) | binding result (Peptide_075): no binding (tested: 1 ug/ml) | binding result (Peptide_096): no binding (tested: 1 ug/ml) | binding result (Peptide_093): no binding (tested: 1 ug/ml) | binding result (Peptide_088): no binding (tested: 1 ug/ml) | binding result (Peptide_091): no binding (tested: 1 ug/ml) | binding result (Peptide_086): no binding (tested: 1 ug/ml) | binding result (Peptide_095): no binding (tested: 1 ug/ml) | binding result (Peptide_092): no binding (tested: 1 ug/ml) | binding result (Peptide_090): no binding (tested: 1 ug/ml) | binding result (Peptide_078): no binding (tested: 1 ug/ml) | binding result (Peptide_094): no binding (tested: 1 ug/ml) | binding result (Peptide_083): no binding (tested: 1 ug/ml) | binding result (Peptide_087): no binding (tested: 1 ug/ml) | binding result (Peptide_079): no binding (tested: 1 ug/ml) | binding result (Peptide_089): no binding (tested: 1 ug/ml) | binding result (Peptide_097): no binding (tested: 1 ug/ml) | binding result (Peptide_081): no binding (tested: 1 ug/ml) | binding result (Peptide_077): no binding (tested: 1 ug/ml)
B1: mAb TRC35 (antibody, V domains shown)
VH: QVQLQQPGTELVKPGASVKLSCKASGYTFTSYWLQWVKQRPGQGLEWIGEIDPSDSYTNYNQKFKGKATLTVDTSSSTAYMQLSSLTSEDSAVYYCATLTGSWGQGTTLAVSS
VL: DVLLTQTPLSLPVSLGDQASISCRASQSIVDSNGNTFLEWYLQKSGQSPKVLIYKVSNRFSGVPDRFSGRGSGTDFTLKISRVEAEDLGVYYCFQGSHVPYTFGGGTKLEIK
notes: Mouse hybridoma monoclonal antibody raised in tau knockout mice against tau/poly(A) RNA complexes; IgG1 isotype, kappa light chain; also called TRC35 monoclonal antibody; hybridoma clone #35
